The source of these data is patent US20100286365A1 (AMYLIN PHARMACEUTICALS, published 2010).

T1: GLP-1 receptor endogenously expressed by RIN m5f cells (UniProt P32301 22-463, limits assumed)
T1 sequence (looked up): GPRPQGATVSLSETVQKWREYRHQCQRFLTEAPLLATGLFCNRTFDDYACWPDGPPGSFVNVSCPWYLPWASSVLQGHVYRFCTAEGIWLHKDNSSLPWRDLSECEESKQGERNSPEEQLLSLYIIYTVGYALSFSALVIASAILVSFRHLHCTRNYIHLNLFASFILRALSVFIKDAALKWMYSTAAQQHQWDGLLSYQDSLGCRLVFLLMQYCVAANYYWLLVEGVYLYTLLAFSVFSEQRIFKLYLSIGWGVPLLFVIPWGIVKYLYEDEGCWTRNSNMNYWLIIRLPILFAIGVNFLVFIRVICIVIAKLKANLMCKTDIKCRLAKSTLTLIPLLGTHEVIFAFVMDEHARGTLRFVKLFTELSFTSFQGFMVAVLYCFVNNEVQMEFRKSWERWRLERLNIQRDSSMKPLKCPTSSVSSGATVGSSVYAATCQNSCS

T2: ACE from rabbit lung (rabbit, UniProt P12822 34-1310, limits assumed)
T2 sequence (looked up): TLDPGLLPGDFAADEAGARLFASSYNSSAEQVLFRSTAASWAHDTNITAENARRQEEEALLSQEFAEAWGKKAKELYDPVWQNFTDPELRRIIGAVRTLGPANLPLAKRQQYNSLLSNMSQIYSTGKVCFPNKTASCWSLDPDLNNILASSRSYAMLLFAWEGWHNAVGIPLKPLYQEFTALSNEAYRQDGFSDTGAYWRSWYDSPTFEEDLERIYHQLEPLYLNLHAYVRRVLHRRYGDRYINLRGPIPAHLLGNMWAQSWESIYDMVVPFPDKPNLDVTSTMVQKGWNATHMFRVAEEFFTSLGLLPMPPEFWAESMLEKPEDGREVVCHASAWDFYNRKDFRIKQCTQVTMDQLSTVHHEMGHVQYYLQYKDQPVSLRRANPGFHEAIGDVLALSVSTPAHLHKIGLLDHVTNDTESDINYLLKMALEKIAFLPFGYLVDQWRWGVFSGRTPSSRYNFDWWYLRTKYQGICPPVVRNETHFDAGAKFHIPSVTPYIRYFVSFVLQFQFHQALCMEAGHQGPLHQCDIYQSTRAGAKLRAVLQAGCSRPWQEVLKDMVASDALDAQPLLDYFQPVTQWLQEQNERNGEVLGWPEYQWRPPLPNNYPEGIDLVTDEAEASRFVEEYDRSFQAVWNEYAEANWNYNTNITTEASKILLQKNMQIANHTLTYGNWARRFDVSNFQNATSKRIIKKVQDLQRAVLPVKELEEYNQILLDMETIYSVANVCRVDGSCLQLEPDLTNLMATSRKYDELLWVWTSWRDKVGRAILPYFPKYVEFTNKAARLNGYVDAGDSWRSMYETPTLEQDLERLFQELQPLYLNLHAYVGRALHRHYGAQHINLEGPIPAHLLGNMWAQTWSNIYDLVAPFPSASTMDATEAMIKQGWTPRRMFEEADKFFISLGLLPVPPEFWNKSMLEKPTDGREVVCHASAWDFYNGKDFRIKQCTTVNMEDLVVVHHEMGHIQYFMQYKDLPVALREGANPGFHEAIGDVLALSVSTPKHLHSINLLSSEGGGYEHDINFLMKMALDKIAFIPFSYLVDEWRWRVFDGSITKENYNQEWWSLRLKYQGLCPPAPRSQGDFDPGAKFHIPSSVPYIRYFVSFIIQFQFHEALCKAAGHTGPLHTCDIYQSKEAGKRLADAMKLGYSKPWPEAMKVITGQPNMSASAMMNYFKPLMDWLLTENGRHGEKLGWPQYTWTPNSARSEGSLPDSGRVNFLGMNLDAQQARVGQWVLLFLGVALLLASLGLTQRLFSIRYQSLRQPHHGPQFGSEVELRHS

T3: GLP-1 receptor endogenously expressed by the thyroid c-cell carcinoma line 6-23 (UniProt P32301 22-463)
T3 sequence (looked up): T1 sequence (looked up)

T4: human GIP receptor (human, UniProt P48546 22-466)
T4 construct: whole, on cells; Membrane fractions of HEK-GIPR cells were used; also called HEK-GIPR
T4 sequence (looked up): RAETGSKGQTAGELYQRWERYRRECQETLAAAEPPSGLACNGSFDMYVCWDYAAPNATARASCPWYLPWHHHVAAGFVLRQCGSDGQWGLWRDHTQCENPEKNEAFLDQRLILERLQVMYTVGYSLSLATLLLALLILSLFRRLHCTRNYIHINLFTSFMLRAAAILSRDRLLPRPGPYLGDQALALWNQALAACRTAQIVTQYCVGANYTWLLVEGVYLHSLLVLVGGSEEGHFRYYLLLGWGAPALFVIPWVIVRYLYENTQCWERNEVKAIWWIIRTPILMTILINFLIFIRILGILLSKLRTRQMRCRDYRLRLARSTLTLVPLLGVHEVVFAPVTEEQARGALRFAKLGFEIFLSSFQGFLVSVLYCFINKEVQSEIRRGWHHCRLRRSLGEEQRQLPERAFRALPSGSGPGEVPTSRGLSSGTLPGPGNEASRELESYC

B1: GLP-1(7-37)-GG-(S)-2,6-diamino-1-(thiazolidin-3-yl)hexan-1-one amide (peptide)
peptide: HAEGTFTSDVSSYLEGQAAKEFIAWLVKGRGGG
modifications: C-terminal Gly amide-linked to (S)-2,6-diamino-1-(thiazolidin-3-yl)hexan-1-one (Lys-thiazolidide, DPP-IV inhibitor motif)
notes: also called Cmpd 4844; 4844
B2: GLP-1(7-37)-GG-(S)-2,6-diamino-1-(thiazolidin-2-cyano-3-yl)hexan-1-one amide (peptide)
peptide: B1 peptide
modifications: C-terminal Gly amide-linked to (S)-2,6-diamino-1-(thiazolidin-2-cyano-3-yl)hexan-1-one (Lys-2-cyanothiazolidide, DPP-IV inhibitor motif)
notes: also called Cmpd 4845; 4845
B3: GLP-1(7-37)-γ-Abu-N^ε2Lys-(Pyr)-WAP-OH (peptide)
peptide 1: HAEGTFTSDVSSYLEGQAAKEFIAWLVKGRG
peptide 2: [pGlu]KWAP-OH
modifications: not fully specified (C-terminus); also: linker at chain B 2 to a chain's C-terminus via γ-Abu
B4: [^2D-Ala^14Leu] GIP(1-30)-βAla-βAla-ε-NH-Lys(α-NH-Pyroglutamoyl)-Trp-Ala-Pro (peptide)
peptide 1: Y[dA]EGTFISDYSIALDKIHQQDFVNWLLAQK
peptide 2: [pGlu]KWAP-OH
modifications: not fully specified (C-terminus); printed as [^2D-Ala^14Leu] GIP(1-30)-βAla-βAla-ε-NH-Lys(α-NH-Pyroglutamoyl)-Trp-Ala-Pro; also: linker at chain B 2 to a chain's C-terminus via βAla-βAla
notes: also called [^2D-Ala,^14Leu]; GIP-(1-30)-β-Ala-β-Ala-Lys(α-NH-Pyroglutamoyl)-Trp-Ala-Pro-COOH
B5: [^2D-Ala] GIP(1-30)-Ado-Ado-Aun-βAla-βAla-ε-NH-Lys(α-NH-Pyroglutamoyl)-Trp-Ala-Pro (peptide)
peptide 1: Y[dA]EGTFISDYSIAMDKIHQQDFVNWLLAQK
peptide 2: [pGlu]KWAP
modifications: not fully specified (C-terminus); printed as [^2D-Ala] GIP(1-30)-Ado-Ado-Aun-βAla-βAla-ε-NH-Lys(α-NH-Pyroglutamoyl)-Trp-Ala-Pro; also: linker at chain B 2 to a chain's C-terminus via Ado-Ado-Aun-βAla-βAla

Where no end group is shown, it is not given here. Side-chain parts run from the residue outwards. [ ]: non-standard residue; d: D form. lisinopril monoester = lisinopril with its ethyl ester not hydrolysed, amide-linked to γ-Abu; linker type G21 = not defined here; linker type C9 = not defined here; pGlu = O=C1CC[C@@H](C(=O)O)N1; AEEA = NCCOCCOCC(=O)O; GABA = NCCCC(=O)O

In the first experiment the target is Recombinant DPP-IV. Put plainly: cell-based or functional assay.
In the case of IPI [Diprotin A (Ile-Pro-Ile)], the “DPP-IV inhibition IC50” value was determined as 5100 nM.

A further experiment addresses T1, GLP-1 receptor endogenously expressed …. Put plainly: cell-based or functional assay.
In the case of B1, the “GLP Cyclase EC50” value stood at 0.13 nM.

As to B2, the “GLP Cyclase EC50” value is 0.4 nM.

In another experiment the target is Recombinant DPP-IV. The experiment in a line: cell-based or functional assay. This is another data set of the same source.
Take B1: the “DPP-IV IC50” value is 91 nM.

As for B2, the “DPP-IV IC50” value came out at 76 nM.

HAEGTFTSDVSSYLEGQAAKEFIAWLVKGR-NH2 [GLP-1]: the “DPP-IV IC50” value is above 3300 nM.

Another experiment deals with T2, ACE from rabbit lung. Put plainly: cell-based or functional assay.
As for HAEGTFTSDVSSYLEGQAAKEFIAWLVKGRG (C-terminus extended by γ-Abu-β-Ala and amide-linked (CONH) to lisinopril diacid) [GLP-1(7-37)-γ-Abu-β-Ala-CONH-lisinopril diacid], the “ACE inhibition IC50” value came out at 180 nM.

B3: the “ACE inhibition IC50” value was above 10000 nM.

In the case of HAEGTFTSDVSSYLEGQAAKEFIAWLVKGRG-{GABA-lisinopril monoester} [GLP-1(7-37)-γ-Abu-CONH-lisinopril monoester], the “ACE inhibition IC50” value is above 100000 nM.

In a further experiment the target is T3, GLP-1 receptor endogenously expressed …. Put plainly: cell-based or functional assay.
On to HAEGTFTSDVTQQLDEKAAKEFIDWLINGGPSKEIIS [Compound 4202], for which the “GLP Cyclase EC50” value is 0.03 nM.

Take HAEGTFTSDVTQQLDEKAAKEFIDWLINGGPSKEIIS-{linker type C9-lisinopril} (reading uncertain) [Compound 5714]: the “GLP Cyclase EC50” value was determined as 2.93 nM.

For HAEGTFTSDVTQQLDEKAAKEFIDWLINGGPSKEIIS-{linker type G21-lisinopril} (reading uncertain) [Compound 5713], the “GLP Cyclase EC50” value was determined as 2.89 nM.

For another experiment, the target named is T2, ACE from rabbit lung. The experiment in a line: cell-based or functional assay. This is another data set of the same source.
On to HAEGTFTSDVSSYLEGQAAKEFIAWLVKGRG (lisinopril joined at the C-terminus through linker type C9 (FIG. 2)) [Compound 5547], for which the “ACE inhibition IC50” value turned out to be 180 nM.

Regarding HAEGTFTSDVSSYLEGQAAKEFIAWLVKGRG (lisinopril joined at the C-terminus through linker type G21 (FIG. 2)) [Compound 5607], the “ACE inhibition IC50” value was 100 nM.

In the case of HAEGTFTSDVTQQLDEKAAKEFIDWLINGGPSKEIIS-{linker type C9-lisinopril} (reading uncertain) [Compound 5714], the “ACE inhibition IC50” value is 350 nM.

With HAEGTFTSDVTQQLDEKAAKEFIDWLINGGPSKEIIS-{linker type G21-lisinopril} (reading uncertain) [Compound 5713], the “ACE inhibition IC50” value is 700 nM.

A further experiment addresses T4, human GIP receptor. The experiment in a line: displacement of 30 pM 125I-GIP from HEK-GIPR membranes by 10 nM conjugate, relative to human GIP (100%).
Procedure: Membrane fractions were prepared from confluent cell cultures of HEK-GIPR, snap frozen, and stored at −80° C. until use. […] Reactions were allowed to proceed to equilibrium for 90 minutes at room temperature with constant shaking. The reaction mixtures were then filtered through 96-well glass fiber filter plates separating bound and unbound fractions of radioligand.
On to YAEGTFISDYSIAMDKIHQQDFVNWLLAQK (C-terminus extended by Ado-Ado-Lys-N-ε-(2-(S)-cyano pyrrolidyl)) [GIP(1-30)-Ado-Ado-Lys-N-ε-(2-(S)-cyano pyrrolidyl)], for which the “GIP RBA % inhibition at 10 nM” value is 97%.

Consider YAEGTFISDYSIAMDKIHQQDFVNWLLAQK (not fully specified (N-terminus)) [N-(γ-L-Glu-2-(S)-cyano pyrrolidyl)-Ado-Ado) GIP(1-30)], for which the “GIP RBA % inhibition at 10 nM” value was 32%.

As for B4, the “GIP RBA % inhibition at 10 nM” value was determined as 66%.

For the molecule B5, the “GIP RBA % inhibition at 10 nM” value stood at 70%.

As to YAEGTFISDYSIAMDKIHQQDFVNWLLAQK([AEEA-γ‑L‑Glu‑2‑(S)‑cyano pyrrolidyl]) [Lys^30 N-ε-(Ado-(γ-L-Glu-2-(S)-cyano pyrrolidyl)) GIP(1-30)], the “GIP RBA % inhibition at 10 nM” value stood at 33%.

With YAEGTFISDYSIALDKIHQQDFVNWLLAQK-{AEEA-Lys‑N‑ε‑(2-(S)-cyano pyrrolidyl)} [[^14Leu] GIP(1-30)-Ado-Lys-N-ε-(2-(S)-cyano pyrrolidyl)], the “GIP RBA % inhibition at 10 nM” value was determined as 100%.

YAEGTFISDYSIAMDKIHQQDFVNWLLAQK (C-terminus extended by Ado-Lys-N-ε-(2-(S)-cyano pyrrolidyl)) [GIP(1-30)-Ado-Lys-N-ε-(2-(S)-cyano pyrrolidyl)]: the “GIP RBA % inhibition at 10 nM” value is 99%.

Another experiment has as its target T1, GLP-1 receptor endogenously expressed …. Put plainly: displacement of [125I]GLP-1 tracer from RIN m5f cell membranes (endogenous GLP-1 receptor), filter binding. Background: Loss of bound radioactivity is the signal in a displacement assay; it reports binding, not function.
Procedure: Membrane fractions were prepared from confluent cultures of RIN m5f cells. […] The reaction mixtures were constantly mixed at 23° C. for 2 hours. The reaction mixtures were filtered through glass filter pads presoaked with 0.3% PEI solution and rinsed with ice-cold phosphate buffered saline. Counts bound to the filer pads were determined using a scintillation counter and binding affinities were calculated using GraphPad PRISM® software (GraphPad Software, Inc., San Diego, Calif.).
What is called IC50 is the concentration that gives 50% inhibition. Lower therefore signals greater potency. Molecule B1 registered an IC50 of 0.087 nM.

B2: the IC50 amounted to 0.1 nM.
